“Also recorded” adds a separate entry of the source.
Tests used:
[1] = system: DLD1 colon cancer cells; assay: 4H2 scFv cell penetration, protein L immunostaining; type: cell-based; details: 6 μM, one hour
[2] = system: PEO1 human ovarian cancer cells; assay: Cell penetration, immunostaining of fixed cells after one hour treatment; type: cell-based; details: washed, alkaline phosphatase-conjugated anti-mouse antibody
Protocol: The ability of 4H2 to penetrate into live cells was tested. PEO1 human ovarian cancer cells were treated with control media or media containing 4H2 or 3E10 (as a positive control) for one hour, and then cells were washed, fixed, and immunostained with an alkaline phosphatase-conjugated anti-mouse antibody.

[3] = system: live A549 human lung cancer cells; assay: Live cell penetration of FITC-labeled 4H2, fluorescence microscopy; type: cell-based; details: FITC-labeled 4H2 4 mg/mL, one hour
Protocol: (§1) To confirm that 4H2 penetrates live cells and exclude the observation as a fixation artifact, FITC-labeled 4H2 was applied to live Cal12T and A549 human lung cancer cells at 4 mg/mL for one hour. Cells were also treated with Hoechst and MitoTracker stains to allow detection of nuclei and mitochondria, respectively. Cells were then washed and visualized under a fluorescence microscope.

[4] = system: live Cal12T human lung cancer cells; assay: as above; type: cell-based; details: FITC-labeled 4H2 4 mg/mL, one hour
Protocol: as §1

[5] = system: Cal12T cells; assay: Cell-penetration and co-localization immunofluorescence assay; type: cell-based, human
Protocol: Cal12T cells were grown on glass coverslips and treated with control media or media containing 0.5 mg/mL 4H2 for one hour. […] For co-localization studies, the fixed cells were also probed overnight with separate rabbit primary antibodies to detect endosomes (C45B10 anti-EEA1 antibody, Cell Signaling), lysosomes (D2D11 anti-LAMP1 antibody, Cell Signaling), endoplasmic reticulum (C81H6 anti-PDI antibody, Cell Signaling), golgi apparatus (D2B6N anti-RCAS1 antibody, Cell Signaling), mitochondria (3E11 anti-COX IV and D3932 anti-AIF antibodies, Cell Signaling), or K-Ras (anti-K-Ras antibody) extensively washed with PBS, and then incubated with an Alexa555-conjugated goat anti-rabbit IgG antibody (Cell Signaling). Cells were also treated with DAPI, and imaged using an EVOS fl digital fluorescence microscope (Advanced Microscopy Group, Bothell, WA) under light, DAPI, GFP, or RFP filters. Fluorescence images were merged using ImageJ (NIH, Bethesda, MD).
After confirming that 4H2 penetrates live cells, subcellular localization was investigated through immunofluorescence co-localization studies. Cal12T cells were treated with 4H2 (0.5 mg/mL) for one hour and were then washed, fixed, and immunostained with an Alexa488-conjugated anti-mouse IgG antibody. […] Cells treated with 4H2 were also co-immunostained with rabbit primary antibodies against markers of early endosomes (EEA1), lysosomes (LAMP1), Golgi (RASC1), ER (PDI), and mitochondria (COX IV), followed by detection with an Alexa555-conjugated anti-rabbit IgG antibody. Use of the Alexa488 and Alexa555-conjugated antibodies to detect 4H2 and organelle markers allowed separate visualization of 4H2 and organelle locations under GFP and RFP filters, respectively. Merging of the GFP and RFP images should yield a yellow signal in areas of co-localization. DAPI co-stain allowed visualization of nuclei in blue. Representative merged images showing DAPI, GFP, and RFP filters for each co-stain were analyzed.
To explore this, Cal12T cells treated with 4H2 were co-stained for 4H2 and K-Ras using the technique described above.

[6] = system: Single-stranded M13mp18 DNA; assay: Nucleolytic assay; type: biochemical; details: 0.5 mg/mL antibody, 37° C., 10 minutes
Protocol: Single-stranded M13mp18 DNA (50 ng; New England Biolabs, Ipswich, MA) was incubated at 37° C. for 10 minutes in control binding buffer (50 mM Tris-HCl, 100 mM NaCl, 10 mM MgCl2) or binding buffer containing 0.5 mg/mL 4H2, 3E10, or 5C6.
An intriguing feature of some anti-DNA antibodies is an association with catalytic activities. […] To determine if 4H2 has any effect on DNA integrity it was incubated with single-stranded M13mp18 plasmid DNA for 10 minutes and then evaluated the integrity of the DNA on an agarose gel. 3E10 and 5C6 were also included as negative and positive controls, respectively.

[7] = GTPase assay, colorimetric Pi release from GTP; type: biochemical; details: 4H2 0-1 mg/mL, 30 minutes, absorbance at 630 nm
Protocol: Pi release from GTP after incubation with 4H2 (0-1 mg/mL) for 30 min was measured by colorimetric assay using the Innova GTPase activity kit.
The effect of 4H2 on Pi release from GTP was tested using a colorimetric assay. 4H2 (0-1 mg/mL) was incubated with GTP for 30 minutes, and Pi release was measured using the Innova GTPase activity kit. Concentration of Pi released was determined from absorbance at 630 nm and comparison to a free Pi standard curve. 4H2 in buffer alone was used as a blank.

[8] = system: Akt phosphorylation in Cal12T cells; assay: Western blot of phospho-Akt; type: cell-based, human; details: 1 mg/mL
Protocol: (§2) Cell lysates were prepared and run on 4-15% SDS-PAGE gradient gels, followed by transfer to membranes. Membranes were then blocked and incubated with the indicated primary antibodies, followed by HRP-conjugated secondary antibody and detection of bands by chemiluminescence. Band intensity measurements were taken using ImageJ.
(§3) To probe the effect of 4H2 on signaling its effect on the phosphorylation of Akt was tested in cells.

[9] = system: Akt phosphorylation in SW48 human colon cancer cells; assay: Western blot of phospho-Akt; type: cell-based; details: 1 mg/mL, 4 hours
Protocol: FIG. 1A is a line graph showing the effect of 4H2 on release Pi from GTP as measured by colorimetric assay (N=2). FIG. 1B is a bar graph showing the relative amounts of phospho-Akt in Cal12T cells treated with 1 mg/mL 4H2 at 4 and 24 hours relative to control (*p<0.05. N=4). FIG. 1C is a bar graph showing the relative amounts of phospho-Akt in SW48 human colon cancer cells treated with 1 mg/mL 4H2 at 4 hours relative to control (*p<0.05. N=2).
as §2, §3

[10] = system: G12C K-Ras-mutant Cal12T lung cancer cells; assay: Clonogenic survival by colony formation assay; type: cell-based, human
Protocol: (§4) FIG. 2A is a line graph showing the effects of 4H2 on a matched pair of isogenic parental (WT) and G12C K-Ras-mutant (KRAS) Cal12T lung cancer cells. Clonogenic survival was measured by colony formation assay (*p<0.02. N=6). FIGS. 2B and 2C are line graphs showing H441 (2B) and H358 K-Ras (2C) addicted human lung cancer cells (G12V and G12C mutations, respectively) treated with control media or media containing 4H2. Surviving fractions were determined by colony formation assay (*p<0.01. N>3). FIG. 2D is a line graph showing the effect of 4H2 on tumor volume (mm^3) of H358 tumor xenografts generated in the flanks of nude mice by subcutaneous injection of tumor cells. Once tumors reached ˜100 mm3 volume mice were treated with direct tumor injection of 50 uL of control PBS or PBS containing 0.5 mg/mL 4H2 twice a week for three weeks. Tumor volumes were monitored, and growth curves are shown. […] N=3 mice per group.
(§5) Aberrations in cell signaling caused by activating mutations in small GTPases such as the Ras family of proteins are found in ˜30% of malignancies, and K-Ras is one of the most frequently mutated small GTPases (Adjei, J Natl Cancer Inst, 93:1062-1074 (2001), Gysin, et al., Genes Cancer, 2:359-372 (2011)). Development of therapies that are preferentially toxic to K-Ras mutant cancer cells is a major goal in oncology. […]

[11] = system: parental (WT) Cal12T lung cancer cells; assay: Clonogenic survival by colony formation assay; type: cell-based, human; details: WT K-Ras
Protocol: as §4, §5

[12] = system: H358 K-Ras addicted human lung cancer cells; assay: Surviving fraction by colony formation assay; type: cell-based; details: K-Ras G12C
Protocol: as §4
(§6) Lastly, to confirm that 4H2 is toxic to K-Ras addicted cancer cells in vivo, H358 subcutaneous xenografts were generated in nude mice and treated by direct injection with control buffer or 25 ug of 4H2 twice a week for three weeks.

[13] = system: H441 K-Ras addicted human lung cancer cells; assay: Surviving fraction by colony formation assay; type: cell-based; details: K-Ras G12V
Protocol: as §4, §6

[14] = system: H358 subcutaneous xenografts; assay: Tumor growth suppression assay; type: in vivo, nude mice; details: intratumoral 25 ug (50 uL of 0.5 mg/mL) twice a week for three weeks; day 15 after initiation of treatment, p<0.01
Protocol: as §4
Subcutaneous xenografts were generated in nude mice by injection of 1×10^6 H358 cancer cells. Treatment with direct intratumoral injection of 50 uL of control PBS (N=3) or 4H2 in PBS (0.5 mg/mL) (N=3) twice a week for three weeks was initiated once tumors reached ˜100 mm^3. Tumor volumes were tracked by caliper measurements. […]

[15] = system: cAMP in cultured cells; details: previous findings; cited from earlier work
[16] = preliminary findings, data not published; cited from earlier work
[17] = system: Htori-3-LLU thyroid epithelial cells; details: cited from earlier work
[18] = system: ERK and Akt; details: cited from earlier work

B1: 4H2 scFv: single chain variable fragment of 4H2, SEQ ID NO:22: VL, linker, VH, His6 tag (protein)
scFv: DIVLTQSPATLSVTPGDRVSLSCRASQSISNYLHWYQQKSHESPRLLIKYASQSISGIPSRFSGSGSGTDFTLSIISVETEDFGMYFCQQSNSWPLTFGAGTKLELKADAAPGGGGSGGGGSGGGGSEVQLQQSGPELVKPGASVKMSCKASGYTFTDYYMNWVKQSHGKSLEWIGRVNPSNGGISYNQKFKGKATLTVDKSLSTAYMQLNSLTSEDSAVYYCARGPYTMYYWGQGTSVTVSSHHHHHH
[1]
  cell penetration: cell-penetrating activity

B2: 4H2: monoclonal anti-guanosine antibody produced by a hybridoma from MRL/lpr; VL SEQ ID NO:1, VH SEQ ID NO:5 (antibody, listed as Mus musculus, V domains shown)
VH: EVQLQQSGPELVKPGASVKMSCKASGYTFTDYYMNWVKQSHGKSLEWIGRVNPSNGGISYNQKFKGKATLTVDKSLSTAYMQLNSLTSEDSAVYYCARGPYTMYYWGQGTSVTVSS
VL: DIVLTQSPATLSVTPGDRVSLSCRASQSISNYLHWYQQKSHESPRLLIKYASQSISGIPSRFSGSGSGTDFTLSIISVETEDFGMYFCQQSNSWPLTFGAGTKLELK
[2]
  location of antibody staining in cells: exclusively cytoplasmic staining
[3]
  4H2 signal in nuclei (overlay with Hoechst): absence of 4H2 signal in the nuclei
  FITC fluorescence correlating to 4H2, location: detected in the cytoplasm
  co-localization with mitochondria (MitoTracker): a distinct co-localization with mitochondria could not be confirmed
[4]
  4H2 signal in nuclei (overlay with Hoechst): absence of 4H2 signal in the nuclei
  FITC fluorescence correlating to 4H2, location: detected in the cytoplasm
  co-localization with mitochondria (MitoTracker): a distinct co-localization with mitochondria could not be confirmed
[5]; 0.5 mg/mL, one hour
  co-localization with endosomes or lysosomes: did not colocalize with endosomes or lysosomes
[5]; 0.5 mg/mL, one hour, fixed cells
  Alexa488 signal (4H2) location: detected in the cytoplasm
[5]; 0.5 mg/mL, one hour, fixed cells, merged GFP/RFP images
  localization to organelles: early endosomes (EEA1), lysosomes (LAMP1), Golgi (RASC1), ER (PDI), mitochondria (COX IV): did not appear to directly localize to any of the organelles tested
[5]; co-stain for 4H2 and K-Ras, merged fluorescence
  co-localization with K-Ras: at least some degree of co-localization
[6]
  effect on DNA integrity (agarose gel): neither 3E10 nor 4H2 had any discernible effects on the DNA integrity
[7]
  Pi release from GTP: dose-dependent release of Pi from GTP
[8]; 24 hours
  amount of phospho-Akt relative to control: reduced the amount of phospho-Akt
[8]; four hours
  amount of phospho-Akt relative to control: reduced the amount of phospho-Akt
[9]
  amount of phospho-Akt relative to control: reduce amounts of p-Akt
[10]
  clonogenic survival, sensitivity to 4H2: highly sensitive to 4H2
[11]
  clonogenic survival, sensitivity to 4H2: more resistant to its effects
[12]
  surviving fraction, sensitivity to 4H2: sensitive to 4H2
[13]
  surviving fraction, sensitivity to 4H2: sensitive to 4H2
[14]
  tumor growth / tumor volume: statistically significant difference in tumor volumes; also recorded: Detectable suppression of tumor growth
[15]
  cAMP in cells: reduces cAMP in cells
[16]
  cleavage of GTP: catalyzed cleavage of the gamma-phosphate bond in radiolabeled GTP
[17]
  association with mitochondria: appeared to associate with mitochondria
[18]
  phosphorylation of ERK and Akt: reduce phosphorylation of ERK and Akt

From US12486318B2, “Anti-guanosine antibody as a molecular delivery vehicle” (Yale University, priority 2016, dated 2025)
